Laboratory results as given in US20240026407A1, “MODIFICATION OF SAPONINS” (GLAXOSMITHKLINE BIOLOGICALS SA, priority 2020, published 2024).

Tests used:
Type in all cases: biochemical, Quillaja saponaria
[1] = Experiment 6-1: screening of rhamnosidases for derhamnosylation of saponins in treated bark extract (2%), QS-17 2296 to QS-18 2150 (PAR %); conditions: TBE 2%, pH 7.5, 30 degC, 18 h; TIC peak area ratio percent of rhamnosylated starting saponin to derhamnosylated product, LCMS/MS; negative controls 4.876, 5.225
[2] = Experiment 6-1: screening of rhamnosidases for derhamnosylation of saponins in treated bark extract (2%), desglucosyl-QS-17 2134 to QS-21 1988 (PAR %); conditions: TBE 2%, pH 7.5, 30 degC, 18 h; TIC peak area ratio percent, LCMS/MS; negative controls 2.719, 2.158
[3] = Experiment 6-1: screening of rhamnosidases for derhamnosylation of saponins in treated bark extract (2%), QS-17 2310 to QS-18 2164 (PAR %); conditions: TBE 2%, pH 7.5, 30 degC, 18 h; TIC peak area ratio percent, LCMS/MS; negative controls 3.061, 2.429
[4] = Experiment 6-2: screening of rhamnosidases for derhamnosylation of saponins in treated bark extract (25%), relative % of Left, Middle and Right Peak by UV HPLC; conditions: TBE 25%, pH 7.4, 19.5 h; for Left Peak: mainly QS-17 family, negative control 24%; for Middle Peak: mainly QS-18 and desglucosyl-QS-17 family, negative control 50%; for Right Peak: mainly QS-21 family, negative control 26%
[5] = Experiment 6-3: screening of rhamnosidases for derhamnosylation of saponins in crude bark extract (80%), relative % of Left, Middle and Right Peak by UV HPLC; conditions: CBE 80%, pH 7.4, 30 degC, 19.5 h; for Left Peak: mainly QS-17 family, negative control 27%; for Middle Peak: mainly QS-18 and desglucosyl-QS-17 family, negative control 48%; for Right Peak: mainly QS-21 family, negative control 26%
Method in brief: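 Clarified lysates of expressed rhamnosidase variants were incubated with crude bark extract (pH 7.4, final 80%) at 30 degC with shaking for 19.5 h, then quenched with MeCN+2% AcOH. UV HPLC gave relative % of Left (QS-17), Middle (QS-18/desglucosyl-QS-17) and Right (QS-21) peaks.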

[6] = Experiment 6-1: specificity of rhamnosidases towards other rhamnose residues (C3 saccharide rhamnose, C28 saccharide rhamnose); conditions: TBE 2%, pH 7.5, 30 degC, 18 h; LCMS/MS; negative controls 0.18, 0.17

Molecule | QS-17 (PAR %) [1] [%] | Peak75 (PAR %) [2] [%] | Peak57 (PAR %) [3] [%] | Left Peak [4] [%] | Middle Peak [4] [%] | Right Peak [4] [%] | Left Peak [5] [%] | Middle Peak [5] [%] | Right Peak [5] [%] | ratio PP/QS-21 [6]
993 (protein, Draconibacterium orientale) MKKLLLCLCFLAIGFLSNAKIKPTQLTCEYLKNPSVVDVLQPRLAWINVADAGERGQEQTAYQIRVASLKEKLENADLWDSGKVKDDASIRVKYDGEKLVSRQDCWWQVRVWDKNNEVSEWSEPAYWHMGLLNENDWTANWIGVPWQGEETLPKPASPAATLPGELPPPAPLFRKEFNATKQVEKAVAYVTGLGYFELYLNGEKVGDDVLVPNQTNYGKRPALTQQYIPLDDNFKEYKVMYLAYDISDQLVSGANTFGAILGNGFYNPSKHWALGYGTPRLLVQVHVAYTDGTEELIVSDESWKVSKSPILMDMVYYGEHYDARLEQDGWCSAGFDDSAWENAILRKAPEGKLVAHTAHPDKVYETLQPVRIEKMYNGNYKVDFGEEISGWVRLKNVEGPEGHKVKINYLSNNYSGDNSYIFKGEGKENYAARFNWFVFREVEIENWPGVLAPENICAEAINTYIEESAHFETSNPLFNQVNKIWKRSQTDNMHGGIASDCPHRERSPYTGDGQVACVTVMHNFDAQNFYYKWIHDMIGAQNVKTGYVPNGAPWQPGCGGGVAWGAAINIIPWEFYVHYGAVDMLEEAYEPMKEYVRYMQTWVNNEGIMNSQRVGLDGNVLQWFNLGEWVTPGDLPPDSLVHTFYFWRCADITAKTAEILGKRKEAKRNRELAETTQSAFHKCFFDAEKGTYGNAGANIFALKMGVPENEYQRVINALKANIKKNKGHLDTGIFGTQFFFEVLSENGLHELAYEAMNKKEEPGYGRWLTLGATTSWENWNTDGSHNHPMFGGGLVWLYRKLAGMQADEKNPGYRHIIFHPQPIKELEFAEYFNKTPYGKAGIKWQQTEGKLSVGVTVPVGCTATVILPGGHFLADGKAMEKVAEVQLVSQKEDELIIKVGAGNYQFSN | 3.836 | 2.211 | 1.129 | 18 | 56 | 27 | 25 | 49 | 26 | 0.18
1082 (protein, listed as Streptomyces avermitilis) MSALRVTSPSVEYVQRPLGLDAAHPRLSWPMASAAPGRRQSAYQVRVASSAAGLSHPDVWDSGKVVSDDSVLVPYAGPPLKPRTRYFWSVRVWDADGGASEWSAPSWWETGLMGASQWSAKWISAPAPLTEAPSLEGSSWIWFPEGEPANSAPAATRWFRRTVDLPDDITGATLAISADNVYAVSVDGAEVARTDLEADNEGWRRPAVIDVLDHVHSGNNTLAVSASNASVGPAGWICVLVLTTASGEKKIFSDASWKSTDHEPADGWREPDFDDSGWPAAKVAAAWGAGPWGRVAPVASAANQLRHEFRLPHKKVSRARLYATALGLYEAHLNGRRVGRDQLAPGWTDYRKRVQYQTYDVTSSVRPGANALAAYVAPGWYAGNVGMFGPHQYGERPALLAQLEVEYADGTSERITSGPDWRAASGPIVSADLLSGETYDARKETAGWTSPGFDDRAWLAVRGADNDVPEQIVAQVDGPVRIAKELPARKVTEPKPGVFVLDLGQNMVGSVRLRVSGDAGTTVRLRHAEVLNPDGTIYTANLRSAAATDTYTLKGQGEETYEPRFTFHGFRYVEVTGFPGKPSTTSVTGRVMHTSAPFTFEFETNVPMLNKLHSNITWGQRGNFLSVPTDTPARDERLGWTGDINVFAPTAAYTMESARFLTKWLVDLRDAQTSDGAFTDVAPAVGNLGNGVAGWGDAGVTVPWALYQAYGDRQVLADALPSVHAWLRYLEKHSDGLLRPADGYGDWLNVSDETPKDVIATAYFAHSADLAARMATELGKDAAPYTDLFTRIRKAFQTAYVASDGKVKGDTQSAYVLTLSMNLVPDALRKAAADRLVALIEAKDWHLSTGFLGTPRLLPVLTDTGHTDVAYRLLHQRTFPSWGYPIDKGSTTMWERWDSIQPDGGFQTPEMNSFNHYAYGSVGEWMYANIAGIAPGRAGYRQVVIRPRPGGEVTSARATFASLHGPVSTRWQQRSGGFVLTCSVPPNTTAEVWIPADHPDRVQHTHGTFVRAEDGCAVFEVGSGSHRFTV | 3.122 | 1.614 | 0.000 | 19 | 55 | 26 | 26 | 47 | 27 | 0.21
1076 (protein, listed as Kribbella flavida) MSFRTRFGCLLAAVLLLTPLVPATGSPPATRETLQVRNLKTNNLTNPLGVPGTPPRLSWQLDGDRRGITQSRYQIRVASTPAKTARPDIWDSGVVRSTDSIEVPYGGPALTTGTAYHWTVRVWDDAGKASAWSPVATFETGPLRPGDWQGDWIGADNQPGPEWTDTTIDADVTLVKDALGVFFRGRGGVGYMWQLNQLTPDKPLLRPHVRQPGGGYVLLGEIPLAAGTDLKQRHHLRITVAGRTITTWLDGVQVDSRERSDHNAPGVVGFRTDGAEHGVVHSLKVTNVAGEVLVDTAFPAGDQTFPDGTVRAEGGLQVKGTTDLWLPGKPIPVFRKAISLPKAKKVASARIDAAAQGIYELTVNGRKAGDHQLAPGWTDYARRIQSQTYDVTKLLKSGANTLGAEVAPGWFTGNLAMFGPNKYGTDTAFIAQLRVTYTDGTADVFATDSSWQTAPGAVRVADLLNGESYDARRTASEWVPAQVRPSATAKIVPQTDQPVRVTQELKARAIPSPTPGAYLYDLGQNMVGIARLTLHGRPGQTVKIRYGEVLNPDGTLYTDNLRSAKATDHYTFATSRPETYQPRFTFHGFRYVEVSGLPTAPPASAIVGVVLGTDAEQVNEFRTNSPLVNQLHSNIVWGQRGNFLSIPTDTPARDERMGWTGDINVFARTAVYNLDSQAFLTKWLQDLRDTQRADGAYASVAPTVPNSFDGGMGNAGWADAGVNVPWTLWQAYGDTSVIRQHYASMTRYVDYLVASSNGLIRGGGDYGDWLNLDDPTPGELIGTSFVAKGARQLSQMAAAIGHTADAAKYQRVYEDVRAAFAARFVAADGKVGSDSQTGYILAFTSDLVPADRIAAAGEHFAATILRRDTHLSTGFLGVDGLLPVLTKIGRTDLAYRLLQNTSYPSWGYEIGKGATTIWERWNSINPDGTFNDVGMNSFNHYAYGAVGEWMYRTLAGLSAAEPGYRKALIAPTPGDGIDTAQLRHRTPYGEVGSQWRRLADGRFTLEVEVPANTTATVRLPAAEARQITESGRALSRAVGVSGVVDEGTTVALTVGSGNYRFAVRP | 3.766 | 1.961 | 1.295 | 22 | 52 | 26 | 26 | 48 | 27 | 0.19
